Legend:
[1] = molecular target: SMYD2-L351A/W356A (human, UniProt Q9NRG4 1-433, L351A | W356A); assay: cell-based or functional assay
[2] = molecular target: T1, Full-length human SMYD2 (residues 1-433), wild type (human, UniProt Q9NRG4 1-433); assay: ITC; NanoITC SV, 27°C, 25 mM Tris pH 7.5, 50 mM NaCl; 40 μM SMYD2 in the cell, 631 μM PARP1 peptide in the syringe, 16 injections of 15 μL; one-site, two-site and binding polynomial models; conditions: both partners purified
T1 construct: SMYD2, human, full length, residues 1-433; Tag cut off with yeast SUMO Protease 1, native N-terminus; Crystals held AdoHcy; also called SMYD2-WT; wild-type SMYD2; not shown: 6xHis-SUMO, N-terminal, cleaved
T1 sequence (Q9NRG4 whole entry, the tested form may be a part): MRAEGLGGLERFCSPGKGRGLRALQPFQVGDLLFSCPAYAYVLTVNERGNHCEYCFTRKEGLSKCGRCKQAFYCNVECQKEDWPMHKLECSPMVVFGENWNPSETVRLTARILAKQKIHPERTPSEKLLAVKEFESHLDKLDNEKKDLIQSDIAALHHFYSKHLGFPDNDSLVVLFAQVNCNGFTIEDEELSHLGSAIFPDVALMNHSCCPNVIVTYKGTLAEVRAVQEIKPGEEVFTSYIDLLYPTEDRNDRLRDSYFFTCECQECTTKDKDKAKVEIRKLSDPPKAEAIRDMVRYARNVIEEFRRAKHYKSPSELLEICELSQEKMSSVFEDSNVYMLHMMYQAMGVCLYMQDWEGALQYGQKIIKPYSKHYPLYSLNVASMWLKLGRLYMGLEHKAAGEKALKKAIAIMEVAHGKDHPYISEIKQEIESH

Sequence of SMYD2-L351A/W356A (Q9NRG4 whole entry L351A/W356A, the tested form may be a part): as the sequence (Q9NRG4 whole entry, the tested form may be a part) above, with L351A, W356A counted along it

KM of steady-state methyltransferase kinetics (MTase-Glo) with the PARP1 peptide as substrate, against wild-type SMYD2 [1]: 4 fold | dH1 (binding polynomial) [2]: -1 kcal/mol | dH2 (binding polynomial) [2]: -1.72 kcal/mol | stoichiometry N [2]: 2
B1: PARP1 peptide (13-residue synthetic peptide, human PARP1 residues 522-534) (peptide)
peptide: RMKLTLKGGAAVD
notes: PARP1, human, residues 522-534, holds the target lysine Lys528; also called Lys528-containing PARP1 peptide; source: synthetic peptide (CPC Scientific)
